Results reported in the supplement of paper PMC7125110.
± gives the standard error. For part of these data: Variants at the floor of the assay were thinned out.

B1: glmS ribozyme (parent)
chain: AUAAAAGCGCCAGAACUACAGAAAUGUAGUUGACGAGGAGGAGGUUUAUCGAAUUUUCGGCGGAUGCCUCCAAA

Columns and labels:
Conditions in all cases: with glucosamine-6-phosphate
glucosamine-6-phosphate [1] = variants of: B1; test: kcat; higher = faster cleavage; RNA array
Outline: (§1)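 E. coli RNA polymerase transcribed barcoded ribozyme variants in situ on sequenced MiSeq chips, which were tracked via a hybridised Cy3 probe at 37 °C. Tiles were imaged over ~14 h after glucosamine-6-phosphate (40 μM to 10 mM) in HEPES/KCl/Mg(OAc)2 buffer was flowed in. Normalised per-tile medians were fit to one- or two-exponential decays for kobs, and kcat and KM came from weighted Michaelis–Menten fits.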

glucosamine-6-phosphate [2] = variants of: B1; test: KM; higher = weaker cofactor use; RNA array
Outline: as §1

glucosamine-6-phosphate [3] = variants of: B1; test: self-cleavage kobs at 160 uM GlcN6P; higher = faster cleavage; RNA array
Outline: as §1

glucosamine-6-phosphate [4] = variants of: B1; test: self-cleavage kobs at 640 uM GlcN6P; higher = faster cleavage; RNA array
Outline: as §1

glucosamine-6-phosphate [5] = variants of: B1; test: self-cleavage kobs at 2500 uM GlcN6P; higher = faster cleavage; RNA array
Outline: as §1

glucosamine-6-phosphate [6] = variants of: B1; test: self-cleavage kobs at 10000 uM GlcN6P; higher = faster cleavage; RNA array
Outline: as §1

glucosamine-6-phosphate [7] = variants of: B1; test: self-cleavage kobs at 40 uM GlcN6P; higher = faster cleavage; RNA array
Outline: as §1

Row | Variant | kcat (glucosamine-6-phosphate [1]) | KM (glucosamine-6-phosphate [2]) | self-cleavage kobs at 160 uM GlcN6P (glucosamine-6-phosphate [3]) | self-cleavage kobs at 640 uM GlcN6P (glucosamine-6-phosphate [4]) | self-cleavage kobs at 2500 uM GlcN6P (glucosamine-6-phosphate [5]) | self-cleavage kobs at 10000 uM GlcN6P (glucosamine-6-phosphate [6]) | self-cleavage kobs at 40 uM GlcN6P (glucosamine-6-phosphate [7])
1 | U49G U55G | 0.000836 ± 7.3e-05 s⁻¹ | 1400 ± 250 µM | 8.7e-05 ± 1.8e-05 s⁻¹ | 0.000247 ± 5e-05 s⁻¹ | 0.000582 ± 6.3e-05 s⁻¹ | 0.000687 ± 9.4e-05 s⁻¹ | –
2 | A14C G29U | 0.000857 ± 0.00017 s⁻¹ | 1650 ± 550 µM | 5.99e-05 ± 1.3e-05 s⁻¹ | 0.000267 ± 3.9e-05 s⁻¹ | 0.000556 ± 8.5e-05 s⁻¹ | 0.000697 ± 0.0001 s⁻¹ | 4.05e-05 ± 1.2e-05 s⁻¹
3 | C50A C61U | < 1e-05 s⁻¹ | – | – | < 1e-05 s⁻¹ | – | – | –
4 | A12U A64U | 0.00027 ± 2.8e-05 s⁻¹ | 2420 ± 540 µM | – | 5.21e-05 ± 5.8e-06 s⁻¹ | 0.000168 ± 1.8e-05 s⁻¹ | 0.000211 ± 1.4e-05 s⁻¹ | –
5 | A14U A52G | 0.00038 ± 0.0001 s⁻¹ | 2840 ± 1300 µM | 5.44e-05 ± 1.7e-05 s⁻¹ | 7.16e-05 ± 1e-05 s⁻¹ | 0.000166 ± 1.6e-05 s⁻¹ | 0.000325 ± 4.4e-05 s⁻¹ | –
6 | G38U G62A | < 1e-05 s⁻¹ | – | < 1e-05 s⁻¹ | – | – | – | –
7 | A39C U65A | 0.000512 ± 3.7e-05 s⁻¹ | 4220 ± 530 µM | – | 6.9e-05 ± 1.1e-05 s⁻¹ | 0.000191 ± 2.8e-05 s⁻¹ | 0.000359 ± 4.1e-05 s⁻¹ | –
8 | A6U A15C A48U U69G | 2.37e-05 ± 7.1e-06 s⁻¹ | – | – | – | – | – | < 1e-05 s⁻¹
9 | G32U C50G C71G | 0.000195 ± 2.4e-05 s⁻¹ | – | – | 0.000151 ± 6.3e-05 s⁻¹ | 0.000194 ± 6.4e-05 s⁻¹ | 0.000231 ± 5.8e-05 s⁻¹ | 0.000189 ± 5.1e-05 s⁻¹
10 | U30C G32C | 0.000399 ± 5.8e-05 s⁻¹ | 3500 ± 1100 µM | – | 5.99e-05 ± 1.9e-05 s⁻¹ | 0.000157 ± 3e-05 s⁻¹ | 0.0003 ± 3.4e-05 s⁻¹ | –
11 | A15U U54A | 0.00741 ± 0.001 s⁻¹ | 1360 ± 360 µM | 0.00059 ± 0.00026 s⁻¹ | 0.00262 ± 0.00048 s⁻¹ | 0.00516 ± 0.0014 s⁻¹ | 0.00623 ± 0.0012 s⁻¹ | –
12 | G40C C70U C71G | 0.00208 ± 0.00091 s⁻¹ | – | 0.000296 ± 8.3e-05 s⁻¹ | 0.000624 ± 0.00016 s⁻¹ | 0.00208 ± 0.00051 s⁻¹ | 0.00243 ± 0.00039 s⁻¹ | 0.000192 ± 2.7e-05 s⁻¹
13 | U56G U57G | < 1e-05 s⁻¹ | – | – | – | – | < 1e-05 s⁻¹ | –
14 | A39U C68G | 0.000151 ± 1.6e-05 s⁻¹ | 998 ± 310 µM | – | 5.37e-05 ± 7.8e-06 s⁻¹ | 0.000126 ± 1.2e-05 s⁻¹ | 0.000127 ± 1.3e-05 s⁻¹ | –
15 | C10U G29A | < 1e-05 s⁻¹ | – | – | – | – | < 1e-05 s⁻¹ | < 1e-05 s⁻¹
16 | A6U U31A | 0.000122 ± 2.6e-05 s⁻¹ | – | – | – | 8.83e-05 ± 2.1e-05 s⁻¹ | 9.85e-05 ± 2.2e-05 s⁻¹ | –
17 | G40A U56C | 0.000181 ± 2.6e-05 s⁻¹ | 2280 ± 720 µM | – | 4.68e-05 ± 8.5e-06 s⁻¹ | 8.42e-05 ± 1.1e-05 s⁻¹ | 0.000157 ± 1.9e-05 s⁻¹ | –
